Results reported in paper PMC9482650, “Quantitative fragmentomics allow affinity mapping of interactomes” (Nature Communications, 2022).

T1: PARD3B_1, Q8TEW8
T1 sequence (Q8TEW8 196-299, limits assumed, looked up): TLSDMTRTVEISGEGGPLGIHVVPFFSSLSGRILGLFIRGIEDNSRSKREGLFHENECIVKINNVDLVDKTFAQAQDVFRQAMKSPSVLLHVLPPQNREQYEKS

T2: PTPN13_1, Q12923
T2 sequence (Q12923 1088-1188, limits assumed, looked up): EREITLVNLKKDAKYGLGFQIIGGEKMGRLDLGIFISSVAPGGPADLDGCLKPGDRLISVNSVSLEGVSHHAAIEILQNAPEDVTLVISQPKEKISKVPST

T3: DLG3_3, Q92796
T3 sequence (Q92796 374-475, limits assumed, looked up): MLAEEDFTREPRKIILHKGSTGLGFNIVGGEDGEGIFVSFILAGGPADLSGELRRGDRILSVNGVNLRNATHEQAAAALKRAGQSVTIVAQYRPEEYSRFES

T4: PDZD7_3, Q9H5P4
T4 sequence (Q9H5P4 857-944, limits assumed, looked up): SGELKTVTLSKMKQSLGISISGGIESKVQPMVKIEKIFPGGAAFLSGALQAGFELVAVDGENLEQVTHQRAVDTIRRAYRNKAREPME

T5: GRIP1_4, Q9Y3R0
T5 sequence (Q9Y3R0 467-571, limits assumed, looked up): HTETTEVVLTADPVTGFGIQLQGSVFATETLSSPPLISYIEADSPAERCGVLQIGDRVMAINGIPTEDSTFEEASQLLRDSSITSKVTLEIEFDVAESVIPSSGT

T6: MPP2, Q14168
T6 sequence (Q14168 180-250, limits assumed, looked up): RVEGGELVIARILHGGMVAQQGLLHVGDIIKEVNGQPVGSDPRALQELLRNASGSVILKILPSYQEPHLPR

T7: SNTG2, Q9NY99
T7 sequence (Q9NY99 68-166, limits assumed, looked up): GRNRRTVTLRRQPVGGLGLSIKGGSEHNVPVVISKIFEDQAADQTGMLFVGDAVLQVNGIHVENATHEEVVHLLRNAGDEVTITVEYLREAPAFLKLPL

T8: DFNB31_1, Q9P202
T8 sequence (Q9P202 135-233, limits assumed, looked up): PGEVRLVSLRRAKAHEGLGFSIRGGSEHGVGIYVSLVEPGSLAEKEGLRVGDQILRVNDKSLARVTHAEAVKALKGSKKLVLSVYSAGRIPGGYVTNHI

T9: LNX2_2, Q8N448
T9 sequence (Q8N448 334-432, limits assumed, looked up): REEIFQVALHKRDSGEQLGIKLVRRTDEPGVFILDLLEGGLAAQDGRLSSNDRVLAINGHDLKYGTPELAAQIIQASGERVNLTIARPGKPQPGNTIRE

T10: SIPA1L2, Q9P2F8
T10 sequence (Q9P2F8 945-1036, limits assumed, looked up): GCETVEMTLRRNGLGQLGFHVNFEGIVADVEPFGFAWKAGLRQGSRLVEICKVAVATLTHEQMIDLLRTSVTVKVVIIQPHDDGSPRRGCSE

T11: SHANK1, Q9Y566
T11 sequence (Q9Y566 658-767, limits assumed, looked up): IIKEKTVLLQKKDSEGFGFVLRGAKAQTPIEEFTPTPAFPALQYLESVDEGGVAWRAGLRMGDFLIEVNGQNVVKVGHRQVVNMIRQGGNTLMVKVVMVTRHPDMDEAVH


How the values were obtained:
Assay in all cases: holdup assay
Design in all cases: key: below the threshold = too weak to quantify, mostly under pKd 3.1 to 4
Conditions in all cases: plain residues with an end cap or a label only (N-terminal biotin on a linker: ado-ado)
NHERF4_2, Q86UT5 = target: NHERF4_2, Q86UT5
NHERF4_2, Q86UT5, sequence (Q86UT5 220-308): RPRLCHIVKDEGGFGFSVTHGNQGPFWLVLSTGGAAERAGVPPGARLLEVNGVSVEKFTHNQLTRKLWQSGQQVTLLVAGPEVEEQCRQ

PARD3B_1, Q8TEW8 = target: T1, PARD3B_1, Q8TEW8
PTPN13_1, Q12923 = target: T2, PTPN13_1, Q12923
DLG3_3, Q92796 = target: T3, DLG3_3, Q92796
PDZD7_3, Q9H5P4 = target: T4, PDZD7_3, Q9H5P4
IL16_1, Q14005 = target: IL16_1, Q14005
IL16_1, Q14005, sequence (Q14005 210-306): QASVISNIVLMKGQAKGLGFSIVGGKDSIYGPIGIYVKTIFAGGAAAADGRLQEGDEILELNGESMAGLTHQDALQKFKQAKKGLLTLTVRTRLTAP

GRASP, Q7Z6J2 = target: GRASP, Q7Z6J2
GRASP, Q7Z6J2, sequence (Q7Z6J2 96-193): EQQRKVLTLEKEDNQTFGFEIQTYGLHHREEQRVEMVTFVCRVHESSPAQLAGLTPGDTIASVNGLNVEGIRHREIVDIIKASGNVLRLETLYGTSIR

GRIP1_4, Q9Y3R0 = target: T5, GRIP1_4, Q9Y3R0
LNX1_1, Q8TBB1 = target: LNX1_1, Q8TBB1
LNX1_1, Q8TBB1, sequence (Q8TBB1 261-371): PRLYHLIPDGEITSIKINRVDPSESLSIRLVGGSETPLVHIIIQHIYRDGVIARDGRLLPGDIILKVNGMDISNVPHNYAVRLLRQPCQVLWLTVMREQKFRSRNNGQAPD

LDB3, O75112 = target: LDB3, O75112
LDB3, O75112, sequence (O75112 1-94): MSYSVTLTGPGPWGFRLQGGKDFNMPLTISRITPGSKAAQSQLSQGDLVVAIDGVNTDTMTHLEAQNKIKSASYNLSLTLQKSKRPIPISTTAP

Inadl_9, Q8NI35 = target: Inadl_9, Q8NI35
Inadl_9, Q8NI35, sequence (Q8NI35 1530-1615): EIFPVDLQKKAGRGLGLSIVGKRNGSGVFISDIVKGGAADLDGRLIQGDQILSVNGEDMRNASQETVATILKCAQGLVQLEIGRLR

MPP2, Q14168 = target: T6, MPP2, Q14168
SCRIB_3, Q14160 = target: SCRIB_3, Q14160
SCRIB_3, Q14160, sequence (Q14160 999-1103): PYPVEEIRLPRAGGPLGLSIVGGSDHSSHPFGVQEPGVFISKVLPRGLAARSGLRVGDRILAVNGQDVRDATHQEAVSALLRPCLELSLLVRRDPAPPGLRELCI

SNTG2, Q9NY99 = target: T7, SNTG2, Q9NY99
DFNB31_1, Q9P202 = target: T8, DFNB31_1, Q9P202
FRMPD4, Q14CM0 = target: FRMPD4, Q14CM0
FRMPD4, Q14CM0, sequence (Q14CM0 67-160): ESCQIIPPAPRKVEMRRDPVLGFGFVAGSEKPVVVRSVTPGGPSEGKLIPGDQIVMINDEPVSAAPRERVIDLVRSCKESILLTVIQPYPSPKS

NHERF4_1, Q86UT5-2 = target: NHERF4_1, Q86UT5-2
NHERF4_1, Q86UT5-2, sequence (Q86UT5 other isoform, or with tags, fused parts or gaps): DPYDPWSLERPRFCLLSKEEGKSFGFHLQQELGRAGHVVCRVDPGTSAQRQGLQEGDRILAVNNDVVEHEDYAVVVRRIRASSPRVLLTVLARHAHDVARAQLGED

LNX2_2, Q8N448 = target: T9, LNX2_2, Q8N448
NHERF2_2, Q15599 = target: NHERF2_2, Q15599
NHERF2_2, Q15599, sequence (Q15599 142-238): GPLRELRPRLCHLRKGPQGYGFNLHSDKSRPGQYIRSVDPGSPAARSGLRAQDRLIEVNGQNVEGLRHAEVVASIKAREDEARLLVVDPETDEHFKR

SIPA1L2, Q9P2F8 = target: T10, SIPA1L2, Q9P2F8
ARHGEF12, Q9NZN5-2 = target: ARHGEF12, Q9NZN5-2
ARHGEF12, Q9NZN5-2, sequence (Q9NZN5 other isoform, or with tags, fused parts or gaps): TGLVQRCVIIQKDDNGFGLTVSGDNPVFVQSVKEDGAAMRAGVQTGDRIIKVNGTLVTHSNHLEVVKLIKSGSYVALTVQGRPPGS

CASK, O14936 = target: CASK, O14936
CASK, O14936, sequence (O14936 487-570): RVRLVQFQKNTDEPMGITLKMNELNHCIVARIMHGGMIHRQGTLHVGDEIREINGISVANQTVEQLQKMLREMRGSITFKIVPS

MAGI2_6, Q86UL8 = target: MAGI2_6, Q86UL8
MAGI2_6, Q86UL8, sequence (Q86UL8 1141-1229): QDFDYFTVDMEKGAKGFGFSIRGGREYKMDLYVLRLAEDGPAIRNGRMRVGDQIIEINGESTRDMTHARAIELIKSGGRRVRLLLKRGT

GRID2IP_2, A4D2P6 = target: GRID2IP_2, A4D2P6
GRID2IP_2, A4D2P6, sequence (A4D2P6 272-370): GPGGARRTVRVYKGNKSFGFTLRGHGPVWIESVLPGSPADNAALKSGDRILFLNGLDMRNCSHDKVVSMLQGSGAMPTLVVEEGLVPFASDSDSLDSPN

MAGI1_1, Q96QZ7 = target: MAGI1_1, Q96QZ7
MAGI1_1, Q96QZ7, sequence (Q96QZ7 1-106): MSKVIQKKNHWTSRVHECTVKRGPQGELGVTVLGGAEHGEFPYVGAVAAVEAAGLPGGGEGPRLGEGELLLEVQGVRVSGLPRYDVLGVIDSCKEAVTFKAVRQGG

SHANK1, Q9Y566 = target: T11, SHANK1, Q9Y566

| Binder | pKd (NHERF4_2, Q86UT5) | pKd (PARD3B_1, Q8TEW8) | pKd (PTPN13_1, Q12923) | pKd (DLG3_3, Q92796) | pKd (PDZD7_3, Q9H5P4) | pKd (IL16_1, Q14005) | pKd (GRASP, Q7Z6J2) | pKd (GRIP1_4, Q9Y3R0) | pKd (LNX1_1, Q8TBB1) | pKd (LDB3, O75112) | pKd (Inadl_9, Q8NI35) | pKd (MPP2, Q14168) | pKd (SCRIB_3, Q14160) | pKd (SNTG2, Q9NY99) | pKd (DFNB31_1, Q9P202) | pKd (FRMPD4, Q14CM0) | pKd (NHERF4_1, Q86UT5-2) | pKd (LNX2_2, Q8N448) | pKd (NHERF2_2, Q15599) | pKd (SIPA1L2, Q9P2F8) | also measured |
| --- | --- | --- | --- | --- | --- | --- | --- | --- | --- | --- | --- | --- | --- | --- | --- | --- | --- | --- | --- | --- | --- |
| CLREWCDAFL [BANF1, O75531] | below the threshold | 5.18 | 3.58 | below the threshold | below the threshold | below the threshold | 3.51 | below the threshold | below the threshold | below the threshold | below the threshold | below the threshold | 4.03 | below the threshold | below the threshold | 4.72 | 4.13 | below the threshold | 4.48 | below the threshold | pKd (ARHGEF12, Q9NZN5-2): below the threshold; pKd (CASK, O14936): 3.52; pKd (MAGI2_6, Q86UL8): 4.36; pKd (GRID2IP_2, A4D2P6): below the threshold; pKd (MAGI1_1, Q96QZ7): below the threshold; pKd (SHANK1, Q9Y566): 4.14 |
| SARSRLSSNL [HCN2, Q9UL51] | below the threshold | 3.71 | below the threshold | below the threshold | 4.09 | below the threshold | 4 | below the threshold | below the threshold | below the threshold | below the threshold | below the threshold | 4.32 | below the threshold | below the threshold | 3.5 | 3.96 | below the threshold | 4.44 | below the threshold | pKd (ARHGEF12, Q9NZN5-2): 4.66; pKd (CASK, O14936): below the threshold; pKd (MAGI2_6, Q86UL8): below the threshold; pKd (GRID2IP_2, A4D2P6): 4.37; pKd (MAGI1_1, Q96QZ7): below the threshold; pKd (SHANK1, Q9Y566): 4.09 |
| GSGAVEMESV [AQP6, Q13520] | below the threshold | below the threshold | below the threshold | below the threshold | below the threshold | below the threshold | below the threshold | below the threshold | below the threshold | below the threshold | below the threshold | below the threshold | below the threshold | below the threshold | below the threshold | below the threshold | below the threshold | 3.49 | below the threshold | below the threshold | pKd (ARHGEF12, Q9NZN5-2): below the threshold; pKd (CASK, O14936): below the threshold; pKd (MAGI2_6, Q86UL8): 3.51; pKd (GRID2IP_2, A4D2P6): below the threshold; pKd (MAGI1_1, Q96QZ7): below the threshold; pKd (SHANK1, Q9Y566): below the threshold |
| PPYRHRNTVV [ERBB4, Q15303] | below the threshold | below the threshold | below the threshold | 4.16 | 4.63 | below the threshold | 4.04 | below the threshold | 4.23 | below the threshold | 3.53 | below the threshold | 3.58 | 3.89 | 3.57 | below the threshold | below the threshold | 4.69 | below the threshold | below the threshold | pKd (ARHGEF12, Q9NZN5-2): 4.12; pKd (CASK, O14936): below the threshold; pKd (MAGI2_6, Q86UL8): below the threshold; pKd (GRID2IP_2, A4D2P6): below the threshold; pKd (MAGI1_1, Q96QZ7): below the threshold; pKd (SHANK1, Q9Y566): below the threshold |
